Assay: soluble on expression in E. coli; label from the status in PepcDB or PDB records

Row | Sequence | soluble on expression in E. coli
1 | MPAHSFRIAAIPGDGIGLEVLPEGIRVLEAAALKHGLALEFDTFEWASCDYYLQHGKMMPDDWAEQLKQYDAIYFGAVGWPDKVPDHISLWGSLLKFRREFDQYVNIRPVRLFPGVPCALANRKVGDIDFVVVRENTEGEYSSLGGIMFENTENEIVIQESIFTRRGVDRILKYAFDLAEKRERKHVTSATKSNGMAISMPYWDKRTEAMAAHYPHVSWDKQHIDILCARFVLQPERFDVVVASNLFGDILSDLGPACAGTIGIAPSANLNPERNFPSLFEPVHGSAPDIFGKNIANPIAMIWSGALMLEFLGQGDERYQRAHDDMLNAIERVIADGSVTPDMGGTLSTQQVGAAISDTLARLD | soluble
2 | MYMASISLKKGQKVDLTKTNPGLSKVLVGLGWDTNRYDGQNDFDLDVSIFLVGANGKVSGAEDFVFYNNPKGANGAVEHLGDNRTGEGEGDDEAIKVDLKNVPAHIERICFTITIYDGEGRSQNFGQVSNSFVRILDEEKNAELIRYDLGEDFSIETAVVVGELYRHAGDWKFNAIGSGFQGGLASLCNNFGLDVE | not soluble
3 | MGHHHHHHSHKNVVHQLSVTLEDLYNGATRKLALQKNVICDKCEGRGGKKGAVECCPNCRGTGMQIRIHQIGPGMVQQIQSVCMECQGHGERISPKDRCKSCNGRKIVREKKILEVHIDKGMKDGQKITFHGEGDQEPGLEPGDIIIVLDQKDHAVFT | not soluble
4 | MMMMRAFIAENVRGIYAFDEDGKLVGKRYFTDKPEKILDGLLKGELVKDLEEFLNELREKGYDEFIFEHPELSRKAKELGFNATTEFPNLAGERLRSNPEEFLGENWFDDYYNVGVALTRMRIQEQSGARDKMVIQAIEALDDVDKVINLLVSRLREWYSLHFPELDEILPRHPQYVAFVKAIGHRDNVDEEKLRELGLSDEKIKKIIEAKEKTMGAWMDETDIAIVQHFAEEIDRLYKLRKELEDYIDKAMDDVAPNLKALVGAKLGARLISLAGGLKELAMLPSSTIQVLGAEKALFRHLRTGAKPPKHGVIYQYPAINRSPWWQRGKIARALAGKLAIAARVDYFSGEYIAEELKKELEARIKEIKEKYPRPPKRRKEERKGRKPWKEKKKKKKKKKGGRR | soluble
5 | MQLASRFGHVNQIRRDRPLTREELMQVVPSVFGEDKHTSRSENYTWIPTITVLESLQREGFQPFFACQTRVRDPGRRGYTKHMLRLRRDGEINGQHVPEIILLNSHDGTSSYQMLPGYFRFVCQNGCVCGQSLGEVRVPHRGNVVEKVIEGAYEVVGVFDRIEEKRDAMQSLVLPPLARQALAQAALTYRYGDEHQPVTTADILTPRRREDYGKDLWSAYQTIQENMLKGGISGRSAKGKRIHTRAIHSIDTDIKLNRALWVMTETLLENMR | not soluble
6 | MGSDKIHHHHHHMSTAKTLTLEMHLGDLMIGELSFDATADTFAVHYTKDWQQSGFPLSPTIPLDGTGTSNQISMFLVNLLPENKGLDYLIESLGVSKGNTFALIRAIGLDTAGAIAFVPKGALLPETQLRPIKAEEVIQRIEDPTMWPMEIWDGKPRLSVAGVQPKLNLFYNGKEFAFAEGTLSSTHIVKFEKYHHLVINEFITMRLAKVLGMNVANVDIVHFGRYKALCVERFDRRNIPGEQRVLRRHIVDSCQALGFSVSKKYERNFGTGRDVKDIREGVSFNRLFSLAAKCRNPVAAKQDMLQWALFNLLTGNADAHGKNYSFFMTPSGMEPTPWYDLVSVDMYEDFEQQLAMAIDDEFDPNSIYAYQLAAFMDGLGLPRNLLISNLTRIARRIPQAIAEVILMLPPLDEDEASFVAHYKTQLLARCERYLGFVDEVRDVEV | not soluble
7 | MKLKLFFHIVLLCFSLPIWAMKTVDVTASPKMDDQARMNLAQEFANKQQWIDVFNIMYPMALEGNITAQSNLGMLYNLGRGTVRDYEKAYWWFSEAAEKGSVKGLNNLGVMYLRGDYVKQNTEQAIKLFERTAQAKDTDAMMMLSNIYRLQNQPEKIIGMAEESRLEHHHHHH | not soluble
8 | MGSDKIHHHHHHMTGRRIAIAIDSLAGGGAEKVMLTLASTLVELGHEPHLLVLQQDCHHEIPPGLQVHFCFGGDERNIDGFWRTRGSVQKLQQWITGLEERFGKFELFLSNLDKTNLLMTRTGVAPLYCVVHNSIEEELQRQRKLGPFAYLSMLRAKKSLNGQHLITVSKGIANEIAEVGRVQPASVQTIYNPFELEKIQHQASQTADALPKGDYIIHVGRFARQKRHDVLFAALKQMRNPLPLVLLCNNKKKAIKSARKFGVEDRVIIPGFQTNPYPWIKGARLLALSSDYEGLPTVLIESLAVGTPVVSTDCRHGPKEILTGALRRFLVPRRDPAALAMAMDEALTHYPDCDDAEILTQVGAAAVAGKYLKLLTA | not soluble
9 | MEFGASFAYRRIDAHVEATLQEAAQVLEKLVIERDAESAITVASQGTPDAISITQAAHETISIDSILRSSKQPKATIRTPRDSNKNRKLTFPPARIGFKSEQLETCDSGITDSTIDQDPPTPDSLFPSAIYIPAKQKPQMTVSISATTASSCSNKSLYRKHIEKLAIEPLEDIKHLKCRGLKKSKPDDLFPKATYDAGTGKPKMALSPSSMVSVDLSYASTTAKSNSLAYQPMEFVSSDGRVKLWLQPLEKQKKKNSEKSKKRERCIDDAPIPPKQLQSSTKLNIENRTKFSTNLSIGDHVIDLSGILNGSMKKKNLAKLVINGQSYSI | not soluble
10 | MAHHHHHHMSSHQILITAPEVYSKRFAQALEARSLIPMAVPVIETIATPDTADMRALLEQDLNGIDYIAFCSRCAVDSLSAALDHRYGGGGESVSERAGSAPAVNEDRRATAVVKVLAKCALAAIGKDADYVFERLRIRTTICPDEPSPAGIAAKLAESGRAEGRTIAVLAPCVEGFTEPDVVPRFVDQLKGMGMKVVRVDAYMTRPVSEEAVSAAVTALKNGSVRGVAFTSAGEIAVLLRRSPQCLMNIDVACFGPYTAGFAAKHGVKVSCVAKDFRSFDGFAATIEQHYASR | soluble
11 | FIKLPEFKLNYHNKSYRQYGRGFALQNTNFRPGSSGTLMLNNQKQIAGIYFGVLDFGEDVSLMSNIGVGQILRVPQKNNTRNR | not soluble
12 | MHRPITAGHTTSRLILDQLKQISRTPSESSVQSALSQQASMSSPVLERSKSAPALLTAAQRTMLAQVGACNSHLTSDENMAINELRLHKPRLPKDTWFFTDPNKDPDDVVTYTLGKQLQAEGFVHITDVVATLGDAEVRSQRAEMAKGVFNKLGLHDVHVSRGRDYAMNSLQSKEHAKFLLEGHALRAGPGEIHRDSLQDMSRRLARAPHGVGIVVIAGMSDINALITTCPDMVRERVDDITIMGGVEPLKDADGFVQPDARAYNNATDMDAARSLYRKAQELGIPLRIVTKEAAYKTAVSPSFYEGIAGSGHPVGHYLRDVQKSALKGLWEGIQAGLLPGLDDSWFFRTFMPNAQIEAAQLDKNKESSFEDIWPKVTKLNLYDPLTLLASVPGAAKLLFKPKAIHTEGFGVVEQVGPDDVTHPEKAKLLMSALAKSALVQSTVAPD | not soluble
13 | MAHHHHHHMHNFAKIFRSNFIDINAANKFEIFLKTILRIYKTPARTHLLAHAADISAIYAVRQIYNYMKNDEEGRTVLKEKPLLIRQDIQFNELKKLPKNTLGYKYMKFLETYKLHAHDREVSHFFTDLNYSYILTRYRQIHDIGHVVYNLNISIESEAALKLIELVQTKLPITLLAILVAPFMTPIYRFQYIFKDSLPSNFLSPNFDFTYTDAYNYVDELSIKQYEYNLTDYFHVEKRNDRNFYTKMYQHYFDNINNSSAVRGSIIYGFENKSSNDIIYDQPNREYIFLKNLKKKYLLFQYKPRKNLLRELYPWAYMAGVSTTKPLHSIHIEKWLDKDIDLFRRTYNISPLPDHLNLMAGIN | not soluble
14 | MSITSTDICQAADALKGFVGFNRKTGRYIVRFSEDSFGMDVADDSITPTSEFVWSSVRDDVMRLGREQLQILLEQNINERLNIGEPLLVYLRRQDLPEITAQRQLR | not soluble
15 | SLRAFRRATDVKTMAALDIQISVEAEGWSSEENLAAFATKVLNAAVDFLKREEEQPFPKMPVELSLVFTDDENIREINAEWRDKDKATNVLSFPAFPLEPGGMPGPMLGDIVIARETVEREALELDKSFEDHLTHLLVHGFLHLFGYDHMDEEEAEEMESLETRILAVLGLSDPYAGQE | not soluble
16 | MSLIHIAIAEDDFRVAQIHERLIKQLDGFKIIGKAANAKETLALLKEHKADLLLLDIYMPDELGTALIPDIRSRFPEVDIMIITAATETRHLQEALRAGIAHYLIKPVTADKFRQVLLQYKEKRKLLMSQPEVSQSMIDHIFGNGVKTALPAEDLPTGINSITLRKIKEALQTASEGLTAEELGEKMGASRTTARRYAEYLVSKEEARAELEYGIIGRPERKYYLAADEGHHHHHH | soluble
17 | MAHHHHHHMNDCISTDKVDLDKKQIKKFLKQINISQLTKMIQFIDNKLLSDWDFNCLTYFDESEYPFFDINLSLICTIDHNIPINIIINFLCFVEKQYNNVPYHNTIHATMVTQKFFCLAKKLGIYDDLEYKIKLVMFISGICHDIGHPGYNNLFFVNSLHPLSIIYNDISVLENYHASITFKILQLNQCNILKNFSEKDFRMMRSYIIELILSTDMKHHFEIISKFRIRRENEDFDYIKNSDDLLILTKMIIKSADISHGSVSWSEHYCWCQRVLSEFYTQGDEELKNKMPLSPLCDRTKHNEVCKSQITFLKFVVMPLFEELSHIDNNKFIKSFCLKRLNSNCIMWDTLMKEEKTIEVYDPAAVKLKDKKKKKVDKKKKSYIDLTLFFIKNV | not soluble
18 | MGSDKIHHHHHHDKNSAPGFSFTTDSILTLTFDKELDAAFVGVGTQNYNPVGMRRSGDTLFIANRAEGSDGVWVVRASTGELLYSLTGWTYNGKNEKFDNQVMDVAVSSDYIFVVNRSSRIDLFRRNDYSYVTTIGRTGWQSSSLLQCEAAEVAGDKLFIRDKQKIKVVQISDCTPENRFKVPVFAQNTDSTSSNNGFNLESVARHEGLIYVSDYETSRILVIDPATVAVKGEPVRFLRSYRMPNKPLSMGFFQNEMYVVCANNCIVRVDLRTGKELGSYSSFAGGVGLGTPGRLLFHNDTFYLAGRNANAPRLIQGKVMFVEISELD | not soluble
19 | MAHVAEWKKKEVEELAKLIKSYPVIALVDVSSMPAYPLSQMRRLIRENGGLLRVSRNTLIELAIKKAAKELGKPELEKLVEYIDRGAGILVTNMNPFKLYKFLQQNRQPAPAKPGAVVPKDVVVPAGPTPLAPGPIVGQMQALGIPARIEKGKVTIQKDTTVLKAGEVITPELANILNALGIQPLEVGLDVLAVYEDGIVYTPDVLAIDEQEYIDMLQKAYMHAFNLAVNIAYPTPETIEAIIQKAFLNAKTVAIEAGYITKETIQDIIGRAFRAMLLLAQQLP | soluble
20 | MLNVEPSFAEELRSSGVSLSATYLGSVPVVESINVMVSEMRVQVVSECIQHVAATVGVTAAREINPVVSRVIGEVKKENFPVDINISSKMIKIIKQSRLIQRHPFSFFSFGAQGQKGTDTELMFGYIAKNKDGTDRRCHVVFIEDVHKLIDVLTTAINVNTFDAQANASTSNDGFTVPAPPMRHRSSLHRQSFVSNCRAPTVTEDVVGKVWYHGNLSREDAQALLKTEGDFLVRQSDHTPGKYVLSGRTAENEHKHLILLDNHNRVRTRDRTFSNISELIDYHVNNGMAVRSEGRDRETSLNLIRPVPCPGSDDIE | soluble
21 | MGSDKIHHHHHHMRRQANSPSPDPVSTTRPVAWRPTLAKQKGETKHSALTERIIADIDAGVLKPMDRMPTHRDLARELGLSVQTVSLSYKEAERLGYLSGEIGRGTFVKTRVTERAGRMMLDHSPTEVLDLSIIRGVYLDDHENASRTILREMADSDNSGFMRPCRPVAGLDSHRETARTWLGMMGVTAGAERILVTNGAAHGIFLALSCIIRSNDVVLCENLTDHGIIGLSNILGFSLKGLPTDEEGILPDALEAACAAGGVRALVLIPTLNNPTGHVSGAARRQAIATIAERYGIFIIEDEVYRPMIEDDLPSITEMLPDLGFFVTSFTKTVLTGLRVGYLVVPPAYSIRAASILRVSSWSGTYLTAEIATRWVENGTARRLLDVQRTEARARQKIAVDILGDHIGSTHPLSFCAWLTVPPRWTEDGLVRALTNQNVAVTPSEPFIAGPGHGGGIRICLGGRLNHASLARALTTVRQTFEQLPPVYDIGSIG | not soluble

Reference: the DeepSol protein solubility set
